B1: Caspase recruitment domain-containing protein 14 (Homo sapiens), Q9BXL6-2 (parent)
chain: MGELCRRDSALTALDEETLWEMMESHRHRIVRCICPSRLTPYLRQAKVLCQLDEEEVLHSPRLTNSAMRAGHLLDLLKTRGKNGAIAFLESLKFHNPDVYTLVTGLQPDVDFSNFSGLMETSKLTECLAGAIGSLQEELNQEKGQKEVLLRRCQQLQEHLGLAETRAEGLHQLEADHSRMKREVSAHFHEVLRLKDEMLSLSLHYSNALQEKELAASRCRSLQEELYLLKQELQRANMVSSCELELQEQSLRTASDQESGDEELNRLKEENEKLRSLTFSLAEKDILEQSLDEARGSRQELVERIHSLRERAVAAERQREQYWEEKEQTLLQFQKSKMACQLYREKVNALQAQVCELQKERDQAYSARDSAQREISQSLVEKDSLRRQVFELTDQVCELRTQLRQLQAEPPGVLKQEARTREPCPREKQRLVRMHAICPRDDSDCSLVSSTESQLLSDLSATSSRELVDSFRSSSPAPPSQQSLYKRVAEDFGEEPWSFSSCLEIPEGDPGALPGAKAGDPHLDYELLDTADLPQLESSLQPVSPGRLDVSESGVLMRRRPARRILSQVTMLAFQGDALLEQISVIGGNLTGIFIHRVTPGSAADQMALRPGTQIVMVDYEASEPLFKAVLEDTTLEEAVGLLRRVDGFCCLSVKVNTDGYKRLLQDLEAKVATSGDSFYIRVNLAMEGRAKGELQVHCNEVLHVTDTMFQGCGCWHAHRVNSYTMKDTAAHGTIPNYSR
partner: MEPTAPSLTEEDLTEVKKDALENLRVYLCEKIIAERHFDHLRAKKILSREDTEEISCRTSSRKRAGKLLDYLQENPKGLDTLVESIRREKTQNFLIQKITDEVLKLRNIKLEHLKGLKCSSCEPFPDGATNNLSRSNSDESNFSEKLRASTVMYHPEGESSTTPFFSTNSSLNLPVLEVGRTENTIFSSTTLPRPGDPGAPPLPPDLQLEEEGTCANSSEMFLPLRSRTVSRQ
B2: Caspase recruitment domain-containing protein 14 (Homo sapiens), Q9BXL6-1 (parent)
chain: MGELCRRDSALTALDEETLWEMMESHRHRIVRCICPSRLTPYLRQAKVLCQLDEEEVLHSPRLTNSAMRAGHLLDLLKTRGKNGAIAFLESLKFHNPDVYTLVTGLQPDVDFSNFSGLMETSKLTECLAGAIGSLQEELNQEKGQKEVLLRRCQQLQEHLGLAETRAEGLHQLEADHSRMKREVSAHFHEVLRLKDEMLSLSLHYSNALQEKELAASRCRSLQEELYLLKQELQRANMVSSCELELQEQSLRTASDQESGDEELNRLKEENEKLRSLTFSLAEKDILEQSLDEARGSRQELVERIHSLRERAVAAERQREQYWEEKEQTLLQFQKSKMACQLYREKVNALQAQVCELQKERDQAYSARDSAQREISQSLVEKDSLRRQVFELTDQVCELRTQLRQLQAEPPGVLKQEARTREPCPREKQRLVRMHAICPRDDSDCSLVSSTESQLLSDLSATSSRELVDSFRSSSPAPPSQQSLYKRVAEDFGEEPWSFSSCLEIPEGDPGALPGAKAGDPHLDYELLDTADLPQLESSLQPVSPGRLDVSESGVLMRRRPARRILSQVTMLAFQGDALLEQISVIGGNLTGIFIHRVTPGSAADQMALRPGTQIVMVDYEASEPLFKAVLEDTTLEEAVGLLRRVDGFCCLSVKVNTDGYKRLLQDLEAKVATSGDSFYIRVNLAMEGRAKGELQVHCNEVLHVTDTMFQGCGCWHAHRVNSYTMKDTAAHGTIPNYSRAQQQLIALIQDMTQQCTVTRKPSSGGPQKLVRIVSMDKAKASPLRLSFDRGQLDPSRMEGSSTCFWAESCLTLVPYTLVRPHRPARPRPVLLVPRAVGKILSEKLCLLQGFKKCLAEYLSQEEYEAWSQRGDIIQEGEVSGGRCWVTRHAVESLMEKNTHALLDVQLDSVCTLHRMDIFPIVIHVSVNEKMAKKLKKGLQRLGTSEEQLLEAARQEEGDLDRAPCLYSSLAPDGWSDLDGLLSCVRQAIADEQKKVVWTEQSPR
partner: B1 partner

Tests used:
Details in all cases: with bcl10_human BCL10, O95999
[1] = variants of: B1
[2] = variants of: B1; remark: listed apart in the source
[3] = variants of: B2; remark: listed apart in the source
[4] = variants of: B2; remark: listed apart in the source

Variant: E138A
- effect of a mutation on the interaction [1]: increasing interaction strength
- effect of a mutation on the interaction [2]: with no effect

Variant: G117S
- effect of a mutation on the interaction [1]: increasing interaction strength
- effect of a mutation on the interaction [2]: with no effect

Variant: E138A
- effect of a mutation on the interaction [3]: with no effect
- effect of a mutation on the interaction [4]: increasing interaction strength
